Results as given in publication PMC7563123 (Biomolecules, 2020).

Tests used:
Conditions in all cases: both partners purified
[1] = molecular target: T1, amyloid beta peptide 1-42 (Aβ1–42) (human, UniProt P05067 672-713); test: SPR; oligomeric Aβ1–42 (Preparation A, dilution of the stock), 1.1-0.055 μM, flowed over cypD or 17β-HSD10 captured by immobilised antibody; running buffer RB1 (10 mM HEPES pH 7.4, BSA 200 μg/mL, 5 mM Na+, 140 mM K+, 1 mM Mg2+); 25 °C, 20 µL/min; global fit, 1:1 Langmuir model
T1 construct: amyloid beta peptide of 42 amino acids, human, produced from amyloid precursor protein; numbers count on: the Aβ peptide; One peptide used in two states; Preparation B (NaOH) is called monomeric, though it might hold monomers and low oligomers; Preparation A (plain dilution of the stock) is called oligomeric, and the size of the oligomers is not determined; The states are told apart by the …

[2] = molecular target: T1, amyloid beta peptide 1-42 (Aβ1–42); test: SPR; monomeric Aβ (Aβ1–40 by Preparation C, HFIP; Aβ1–42 by Preparation B, NaOH), five concentrations, flowed over cypD or 17β-HSD10 captured by immobilised antibody; running buffer RB1 (10 mM HEPES pH 7.4, BSA 200 μg/mL, 5 mM Na+, 140 mM K+, 1 mM Mg2+); 25 °C, 20 µL/min; global fit, 1:1 Langmuir model
[3] = molecular target: T2, amyloid beta peptide 1-40 (Aβ1–40) (human, UniProt P05067 672-711); test: as above
T2 construct: amyloid beta peptide of 40 amino acids, human, produced from amyloid precursor protein; numbers count on: the Aβ peptide; Stock dissolved in 1% NH4OH and diluted by PBS to 100 μM; Preparation C (HFIP) is called monomeric, though it might hold monomers and low oligomers; also called monomeric Aβ_(1–40); source: synthetic peptide, bought: AnaSpec

B1: cyclophilin D (cypD), human recombinant (enzyme)
chain: not shown
notes: cyclophilin D, human recombinant, NCBI Gene ID 10105; Commercial protein; It was held on the chip by an immobilised anti-cypD antibody; source: bought: Fitzgerald
[1]
  Kd: 5.3 ± 1.2 nM
  koff: 6.1e-05 s⁻¹
  kon: 11100 M⁻¹ s⁻¹
[2]
  Kd: 56.5 ± 5.4 nM
  koff: 0.000139 s⁻¹
  kon: 2690 M⁻¹ s⁻¹
[3]
  Kd: 160 ± 57.8 nM
  koff: 0.000174 s⁻¹
  kon: 1170 M⁻¹ s⁻¹
